Laboratory results from paper PMC3887093.

B1: DBP-RII with C-terminally fused GFP, wild type, on the surface of HEK293T cells [Plasmodium vivax] / Duffy antigen/receptor for chemokines (DARC) on human red blood cells [human (endogenous in RBCs)] (parent)
chain 1: ASNTVMKNCNYKRKRRERDWDCNTKKDVCIPDRRYQLCMKELTNLVNNTDTNFHRDITFRKLYLKRKLIYDAAVEGDLLLKLNNYRYNKDFCKDIRWSLGDFGDIIMGTDMEGIGYSKVVENNLRSIFGTDEKAQQRRKQWWNESKAQIWTAMMYSVKKRLKGNFIWICKLNVAVNIEPQIYRWIREWGRDYVSELPTEVQKLKEKCDGKINYTDKKVCKVPPCQNACKSYDQWITRKKNQWDVLSNKFISVKNAEKVQTAGIVTPYDILKQELDEFNEVAFENEINKRDGAYIELCVCSVEEAKKNTQEVVTNVDN
chain 2: MGNCLHRAELSPSTENSSQLDFEDVWNSSYGVNDSFPDGDYGANLEAAAPCHSCNLLDDSALPFFILTSVLGILASSTVLFMLFRPLFRWQLCPGWPVLAQLAVGSALFSIVVPVLAPGLGSTRSSALCSLGYCVWYGSAFAQALLLGCHASLGHRLGAGQVPGLTLGLTVGIWGVAALLTLPVTLASGASGGLCTLIYSTELKALQATHTVACLAIFVLLPLGLFGAKGLKKALGMGPGPWMNILWAWFIFWWPHGVVLGLDFLVRSKLLLLSTCLAQQALDLLLNLAEALAILHCVATPLLLALFCHQATRTLLPSLPLPEGWSSHLDTLGSKS

Variants of: B1
Assay: red blood cell rosetting (RBC binding) assay with DBP-RII-GFP expressed on HEK293 cells
Conditions: parent: 100, read off a plot
Work on chain 1 Y155L yielded a percent of parent of 0 % Binding. chain 1 Y155A was tested, and the percent of parent was 0 % Binding. In the case of chain 1 T58W, the percent of parent is reported as 55 % Binding. chain 1 A73L showed a percent of parent of 0 % Binding. Variant chain 1 Q148Y has a percent of parent of 66 % Binding. For chain 1 Q148D, the percent of parent was 18 % Binding. chain 1 I57R was tested, and the percent of parent was 72 % Binding. chain 1 D56W was tested, and the percent of parent was 59 % Binding. chain 1 D56R showed a percent of parent of 42 % Binding.
